Reference: the supplement of paper PMC9170038

System: MS2 coat protein
Experiment: apparent KD of MS2 coat protein; designed switch direction (-1 OFF switch, 1 ON switch): -1; higher = weaker reporter binding
How it was run: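 On Illumina chips, designed RNA switches with common flanks were made by stalled E. coli RNA polymerase. Titrations with SNAP-549-labelled MS2 coat protein, doubling from 0.7 or 1.5 nM to 3 µM, were done with no input, with 200 uM small-molecule ligand, or with an oligonucleotide input. Apparent KD is the median per design over clusters, from curve fits of normalised cluster fluorescence.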

[1] = Eterna round: R95, input ligand: microRNA oligo, concentration not stated
[2] = Eterna round: R95, input ligand: FMN 200 uM
[3] = Eterna round: R95, input ligand: none

Sequence	apparent KD of MS2 coat protein (input ligand: FMN 200 uM) [nM]	apparent KD of MS2 coat protein (input ligand: none) [nM]	apparent KD of MS2 coat protein [1] [nM]	apparent KD of MS2 coat protein [2] [nM]	apparent KD of MS2 coat protein [3] [nM]	apparent KD of MS2 coat protein (input ligand: microRNA oligo, concentration not stated) [nM]
AAUCAACAUGAGGAUCACCCAUGUGAGGAUAUAGGCAUGCAUGCAUGCAUGCAUGCAACUAGAAGGCACAAUAC [Design #18] (Eterna round: R97, puzzle: Exclusion 1)	58.2	37.4	–	–	–	–
AAUCCACAUGAGGAUCACCCAUGUGAGGAUAUGAUACUAUGUACUUCGGUACAUAGUAUCAGAAGGCAUAUGAA [Ex1-3: 49] (puzzle: Exclusion 1)	–	–	26.9	–	–	–
AAUCCUAGAGGAUAUACAUGUGAACUACUGUACAUCCCUGUACAUGAGGAUCACCCAUGUAGAAGGCUGACGGA [Eternabot (L2) Solution 97] (Eterna round: R97, puzzle: Exclusion 2)	244	197	–	–	–	–
AAUGCAAGCAAGAUCCUAAACAUGAGGAUCACCCAUGUGCUCGUCUUAUAAAGUACUAUCACGAAAGUGAUAGUACA [Sensor 3, v1 - 64] (puzzle: Sensor v3, turn-off variant 1)	–	–	132	515	744	–
AAUGGGUGUGUGAGGAUAUACGAAGGCAAUUGCCAGUAGAAGGUACAUGAGGAUCACCCAUGUGUCCAAAAGAG [Tititemaon] (puzzle: Brourd's mod of Exclusion 4)	–	–	9.11	12.8	13.2	–
AAUUAACAUCAGGAUAUGACUAGCUUCGGCUAGUCAGAAGGGAUGACAUGAGGAUCACCCAUGUGAUCAAUUAA [E6/2-A1] (Eterna round: R97, puzzle: Exclusion 6)	127	134	–	–	–	–
AAUUAAGCAAGCAGAUCCCACAUGAGGAUCACCCAUGUGCUCGUCUUAUAAGGUACUGUGACGAAAGUCACGGUACC [Mat - Sensor, turn-off var - Eli Mod - D72] (Eterna round: R97, puzzle: Sensor, turn-off variant 1)	129	120	–	–	–	–
AAUUAGCAAGCAAGAUCCCACAUGAGGAUCACCCAUGUGCUCGUCUUAUAAGGUACUGUGACGAUAGUCACGGUACC [Mat - Sensor, turn-off var - Eli Mod - D49] (Eterna round: R97, puzzle: Sensor, turn-off variant 1)	42.9	49.4	–	–	–	–
AAUUAGCAAGCGAGAUCCCACAUGAGGAUCACCCAUGUGCUCGUCUUAUAAAAGACUGUGACGAUAGUCACGGUCAC [Mat - Sensor, turn-off var - Eli Mod - D25] (Eterna round: R97, puzzle: Sensor, turn-off variant 1)	15.3	12.3	–	–	–	–
AAUUAGUCAGGAUAUACAUGAGGAUCACCCAUGUAAACUUUUAGUUUAAUUUGAAUGUGUAGAAGGGACAUUAA [Ex3 #48] (Eterna round: R97, puzzle: Exclusion 3)	25.4	29.7	–	–	–	–
AAUUCUAGGGUCAGACGCACAAGCUUUUUGCUCGUUUUAACAUGAGGAUCACCCAUGUCUAGUGGAUCUGAUCGGGC [JL ViennaUCT Isreen mod 8] (Eterna round: R96, puzzle: Sensor v3, turn-off variant 2)	25.3	33.3	–	–	–	58.1
AAUUCUAGGGUCAGACGCACAAGCUUUUUGCUCGUUUUAACAUGAGGAUCACCCAUGUCUAGUGGAUCUGAUCGGGC [JL ViennaUCT Isreen mod 8] (puzzle: Sensor v3, turn-off variant 2)	–	–	72.9	24.8	22.4	–
AAUUUAAUUAACAAGCUUUACAUGAGGAUCACCCAUGUGAUCAUGCUCGUCUUAUAAUUAAUUAAUUAAUUAAUUAA [Stov1/6-A1] (Eterna round: R97, puzzle: Sensor, turn-off variant 1)	48.4	59.2	–	–	–	–
AAUUUACAUGAGGAUCACCCAUGUGAGGAUAUAUGUUUAAAUUUUUUUUUUUUUUUUCAUAGAAGGCGCGUGAU [JR_Exc1_Sub048] (Eterna round: R97, puzzle: Exclusion 1)	17.3	31.6	–	–	–	–
AAUUUACAUGAGGAUCACCCAUGUGAGGAUAUAUGUUUUAAUUUUUUUUUUUUUUUUCAUAGAAGGCGCGUGAU [JR_Exc1_Sub047] (Eterna round: R97, puzzle: Exclusion 1)	49.4	43.5	–	–	–	–
AAUUUACAUGAGGAUCACCCAUGUGAGGAUAUGAUACUAUGUACUUCGGUACAUAGUAUCAGAAGGCAUGUGGG [Ex1-3: 93] (puzzle: Exclusion 1)	–	–	19.1	–	–	–
AAUUUGCAAGCGAGAUCCCACAUGAGGAUCACCCAUGUGCUCGUCUUAUAAGGUACUGUGACGAUAGUCACGGUACC [Mat - Sensor, turn-off var - Eli Mod - D93] (Eterna round: R97, puzzle: Sensor, turn-off variant 1)	14.1	14.3	–	–	–	–
